Laboratory results: patent US20260216326A1 (PROMETHEUS BIOSCIENCES, published 2026)
Residue numbers refer to the chain shown, from its start. Names may count otherwise. Values belong to the binder of their own block, whether it stands above or below them.

Legend:
[1] = target: T1, recombinant TL1A antigen (UniProt O95150 72-251, limits assumed); test: ELISA titration against recombinant TL1A antigen
T1 sequence (looked up): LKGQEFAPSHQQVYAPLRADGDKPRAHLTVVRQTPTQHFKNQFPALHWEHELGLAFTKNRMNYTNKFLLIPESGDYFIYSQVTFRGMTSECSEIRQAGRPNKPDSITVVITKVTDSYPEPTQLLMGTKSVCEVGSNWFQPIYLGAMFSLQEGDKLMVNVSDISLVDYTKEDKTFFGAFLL

[2] = target: T2, human TL1A (human, UniProt O95150 72-251, limits assumed); test: ELISA titration on plate-coated human TL1A, unpurified culture supernatant
T2 construct: also called tumor necrosis factor-like cytokine 1A; TNFSF15
T2 sequence (looked up): T1 sequence (looked up)

[3] = target: T3, TL1A in human blood (human, UniProt O95150 72-251, limits assumed); test: cell-based or functional assay
T3 sequence (looked up): T1 sequence (looked up)

[4] = target: T3, TL1A in human blood; test: cell-based or functional assay; remark: listed apart in the source
[5] = target: T4, DR3 (Death Receptor 3) natively expressed on human TF-1 cells (human, UniProt Q93038 25-417); test: TF-1 cell caspase activation assay
T4 construct: whole, on cells; also called TNFRSF25
T4 sequence (looked up): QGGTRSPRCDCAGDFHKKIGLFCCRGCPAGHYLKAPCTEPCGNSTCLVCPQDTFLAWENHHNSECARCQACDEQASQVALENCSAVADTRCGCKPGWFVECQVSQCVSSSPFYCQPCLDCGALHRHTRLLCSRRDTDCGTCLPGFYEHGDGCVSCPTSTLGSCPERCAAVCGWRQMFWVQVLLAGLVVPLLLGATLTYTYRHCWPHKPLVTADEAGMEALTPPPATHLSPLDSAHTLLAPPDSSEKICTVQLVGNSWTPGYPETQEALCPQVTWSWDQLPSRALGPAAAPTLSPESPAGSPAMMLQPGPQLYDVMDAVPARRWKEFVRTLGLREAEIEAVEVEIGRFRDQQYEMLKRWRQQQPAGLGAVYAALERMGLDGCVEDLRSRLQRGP
Description: TF-1 cells are human erythroleukemic cells that natively express DR3, the functional receptor for TL1A.

EC50 [1]: 0.252 nM
B1: anti-TL1A antibody with heavy chain SEQ ID NO: 380 (IgG4, S228P, F234A, L235A; Fc SEQ ID NO: 367) and light chain SEQ ID NO: 381 (antibody)
heavy: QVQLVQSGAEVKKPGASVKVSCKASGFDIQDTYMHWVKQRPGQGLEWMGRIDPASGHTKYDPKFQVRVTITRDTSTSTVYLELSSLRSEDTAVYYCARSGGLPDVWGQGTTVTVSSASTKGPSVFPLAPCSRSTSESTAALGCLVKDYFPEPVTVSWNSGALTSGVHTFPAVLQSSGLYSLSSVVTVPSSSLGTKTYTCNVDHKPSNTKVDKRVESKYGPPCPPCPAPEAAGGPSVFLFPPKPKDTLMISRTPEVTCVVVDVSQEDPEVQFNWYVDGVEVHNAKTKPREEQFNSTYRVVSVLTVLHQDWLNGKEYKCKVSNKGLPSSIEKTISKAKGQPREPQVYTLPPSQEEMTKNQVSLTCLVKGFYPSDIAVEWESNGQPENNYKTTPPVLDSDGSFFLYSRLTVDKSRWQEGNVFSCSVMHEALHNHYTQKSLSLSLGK
light: EIVLTQSPGTLSLSPGERATLSCRASSSVSYMYWYQQKPGQAPRPLIYATSNLASGIPDRFSGSGSGTDFTLTISRLEPEDFAVYYCQQWEGNPRTFGGGTKLEIKRTVAAPSVFIFPPSDEQLKSGTASVVCLLNNFYPREAKVQWKVDNALQSGNSQESVTEQDSKDSTYSLSSTLTLSKADYEKHKVYACEVTHQGLSSPVTKSFNRGEC

Kd [2]: 0.056 nM
B2: A195 (antibody, IgG1, V domains shown)
VH: EVQLVQSGAEVKKPGASVKVSCKASGFDIQDTYMHWVRQAPGQGLEWMGRIEPASGHIKYDPKFQGRATITTDTSTSTVYMELSSLRSEDTAVYYCARSGGLPDWWGQGTTVTVSS
VL: EIVLTQSPGTLSLSPGERATLSCRASSSVSYMYWYQQKPGQAPRPWIYATSNLASGIPDRFSGSGSGTDFTLTISRLEPEDFAVYYCQQWEGNPRTFGGGTKLEIK

% Inhibition at 1 nM Ig; interferon gamma release in human blood [3]: 51.3%
% Inhibition at 10 nM Ig; interferon gamma release in human blood [3]: 72.4%
B3: A147 (antibody, IgG1, V domains shown)
VH: B2 VH with E1Q, R38K, A40R, A68V, I70M, T72R
VL: B2 VL with W46L

Kd [2]: 0.058 nM
B5: A209 (antibody, IgG1, V domains shown)
VH: B2 VH with R38K, A68V, I70M, T72R
VL: B2 VL with P45L, W46L

Kd [2]: 0.05 nM
B7: A206 (antibody, IgG1, V domains shown)
VH: B2 VH with A40R, M48I, E52D, I58T, G66V, V79A, M81L, W105V
VL: B2 VL with P45L, W46L

Kd [2]: 0.054 nM
B8: A196 (antibody, IgG1, V domains shown)
VH: B2 VH with I70M, T72R
VL: B2 VL

Kd [2]: 0.062 nM
B12: A223 (antibody, IgG1, V domains shown)
VH: B2 VH with A40R, M48I, E52D, I58T, G66V, V79A, M81L, W105V
VL: B2 VL with P45L, W46L

Kd [2]: 0.05 nM
% Inhibition at 1 nM Ig; interferon gamma release in human blood [3]: 36.9%
% Inhibition at 10 nM Ig; interferon gamma release in human blood [3]: 63.2%
B19: A220 (antibody, IgG1, V domains shown)
VH: QVQLVQSGAEVKKPGASVKVSCKASGFDIQDTYMHWVKQRPGQGLEWMGRIDPASGHTKYDPKFQVRVTMTRDTSTSTAYLELSSLRSEDTAVYYCARSGGLPDVWGQGTTVTVSS
VL: B2 VL

Kd [2]: 0.058 nM
B20: A211 (antibody, IgG1, V domains shown)
VH: B19 VH with M48I, V68A, M70I, R72T
VL: B2 VL with W46L

Kd [2]: 0.043 nM
% Inhibition at 1 nM Ig; interferon gamma release in human blood [3]: 46%
% Inhibition at 10 nM Ig; interferon gamma release in human blood [3]: 72.2%
B21: A217 (antibody, IgG1, V domains shown)
VH: B19 VH with M70I, A79V, L81M
VL: B2 VL with W46L

Kd [2]: 0.054 nM
B22: A197 (antibody, IgG1, V domains shown)
VH: B2 VH with R38K, A68V, I70M, T72R
VL: B2 VL

Kd [2]: 0.059 nM
B23: A202 (antibody, IgG1, V domains shown)
VH: B2 VH with I70M, T72R
VL: B2 VL with W46L

Kd [2]: 0.052 nM
B25: A200 (antibody, IgG1, V domains shown)
VH: B19 VH with Q1E, K38R, M48I, V68A, M70I, R72T
VL: B2 VL with W46L

Kd [2]: 0.062 nM
B27: A203 (antibody, IgG1, V domains shown)
VH: B2 VH with R38K, A68V, I70M, T72R
VL: B2 VL with W46L

Kd [2]: 0.051 nM
B28: A214 (antibody, IgG1, V domains shown)
VH: B19 VH with K38R, M70I
VL: B2 VL with W46L

The next lines start with the binder.

B4: A204 (antibody, IgG1, V domains shown)
VH: B2 VH with A68V, I70M, T72R, V79A
VL: B2 VL with W46L
Kd [2]: 0.053 nM

B6: A199 (antibody, IgG1, V domains shown)
VH: B19 VH with Q1E, M48I, V68A, M70I, R72T
VL: B2 VL with W46L
Kd [2]: 0.05 nM

B9: A218 (antibody, IgG1, V domains shown)
VH: B19 VH with M70I, L81M
VL: B2 VL with W46L
Kd [2]: 0.051 nM

B10: A198 (antibody, IgG1, V domains shown)
VH: B2 VH with A68V, I70M, T72R, V79A
VL: B2 VL
Kd [2]: 0.053 nM

B11: A213 (antibody, IgG1, V domains shown)
VH: B19 VH with K38R, M70I, R72T, A79V, L81M
VL: B2 VL with W46L
Kd [2]: 0.049 nM
% Inhibition at 1 nM Ig; interferon gamma release in human blood [3]: 48.6%
% Inhibition at 10 nM Ig; interferon gamma release in human blood [3]: 69.8%
IC50 values, Mean; inhibition of interferon gamma release from multiple human donors [4]: 46.8

B13: A210 (antibody, IgG1, V domains shown)
VH: B2 VH with A68V, I70M, T72R, V79A
VL: B2 VL with P45L, W46L
Kd [2]: 0.07 nM

B14: A201 (antibody, IgG1, V domains shown)
VH: B2 VH
VL: B2 VL with W46L
Kd [2]: 0.058 nM

B15: A215 (antibody, IgG1, V domains shown)
VH: B19 VH with K38R, M70I, R72T
VL: B2 VL with W46L
Kd [2]: 0.048 nM

B16: A212 (antibody, IgG1, V domains shown)
VH: B19 VH with K38R, M48I, V68A, M70I, R72T
VL: B2 VL with W46L
Kd [2]: 0.05 nM
% Inhibition at 1 nM Ig; interferon gamma release in human blood [3]: 46.8%
% Inhibition at 10 nM Ig; interferon gamma release in human blood [3]: 71.2%
IC50 values, Mean; inhibition of interferon gamma release from multiple human donors [4]: 51.3

B17: A224 (antibody, IgG1, V domains shown)
VH: B2 VH with R38K, A68V, I70M, T72R
VL: B2 VL with W46L
Kd [2]: 0.076 nM

B18: A222 (antibody, IgG1, V domains shown)
VH: B19 VH with M70I
VL: B2 VL with W46L
Kd [2]: 0.06 nM

B24: A216 (antibody, IgG1, V domains shown)
VH: B19 VH with K38R, M48I, M70I
VL: B2 VL with W46L
Kd [2]: 0.049 nM

B26: A205 (antibody, IgG1, V domains shown)
VH: B19 VH with Q1E, M48I, V68A, M70I, R72T
VL: B2 VL with P45L, W46L
Kd [2]: 0.055 nM

B29: recombinant human TL1A protein (tumor necrosis factor-like cytokine 1A) (ligand, UniProt O95150 72-251, looked up)
chain: T1 sequence (looked up)
notes: Recombinant protein used in ELISA, SPR and the TF-1 caspase assay; also called TNFSF15; soluble TL1A
binding result [5]: binds
